Tests used:
[1] = target: integrin β1 on human synovium-derived stem cells (human) (UniProt P05556); assay: flow cytometry staining of human synovium-derived stem cells, third lot listed (ST1434)
[2] = target: integrin β1 on human synovium-derived stem cells (human) (UniProt P05556); assay: flow cytometry staining of human synovium-derived stem cells, fourth lot listed (ST1462)
[3] = target: integrin β1 on human synovium-derived stem cells (human) (UniProt P05556); assay: flow cytometry staining of human synovium-derived stem cells, second lot listed (ST1420)
[4] = target: integrin β1 on human synovium-derived stem cells (human) (UniProt P05556); assay: flow cytometry staining of human synovium-derived stem cells, first lot listed (ST1414)
[5] = target: platelet-derived growth factor receptor β on human synovium-derived stem cells (human) (UniProt P09619); assay: flow cytometry staining of human synovium-derived stem cells, third lot listed (ST1434)
[6] = target: platelet-derived growth factor receptor β on human synovium-derived stem cells (human) (UniProt P09619); assay: flow cytometry staining of human synovium-derived stem cells, fourth lot listed (ST1462)
[7] = target: platelet-derived growth factor receptor β on human synovium-derived stem cells (human) (UniProt P09619); assay: flow cytometry staining of human synovium-derived stem cells, second lot listed (ST1420)
[8] = target: platelet-derived growth factor receptor β on rat synovium-derived mesenchymal stem cells (rat) (UniProt Q05030); assay: flow cytometry staining of rat synovium-derived MSC with FITC anti-goat secondary, TrypLE detachment 120 minutes
[9] = target: platelet-derived growth factor receptor β on rat synovium-derived mesenchymal stem cells (rat) (UniProt Q05030); assay: cell-based or functional assay
[10] = target: platelet-derived growth factor receptor β on rat synovium-derived mesenchymal stem cells (rat) (UniProt Q05030); assay: flow cytometry staining of rat synovium-derived MSC with FITC anti-goat secondary, TrypLE detachment 5 minutes
[11] = target: platelet-derived growth factor receptor β on rat synovium-derived mesenchymal stem cells (rat) (UniProt Q05030); assay: flow cytometry staining of rat synovium-derived MSC with FITC anti-goat secondary, TrypLE detachment 60 minutes
[12] = target: platelet-derived growth factor receptor β on rat synovium-derived mesenchymal stem cells (rat) (UniProt Q05030); assay: flow cytometry staining of rat synovium-derived MSC with FITC anti-goat secondary, TrypLE detachment 30 minutes
[13] = target: platelet-derived growth factor receptor β on human synovium-derived stem cells (human) (UniProt P09619); assay: flow cytometry staining of human synovium-derived stem cells, first lot listed (ST1414)
[14] = target: integrin β1 on rat synovium-derived mesenchymal stem cells (rat) (UniProt P49134); assay: flow cytometry staining of rat synovium-derived MSC cultured 28 days, TrypLE detachment 120 minutes
[15] = target: integrin β1 on rat synovium-derived mesenchymal stem cells (rat) (UniProt P49134); assay: flow cytometry staining of rat synovium-derived MSC, TrypLE detachment 60 minutes
[16] = target: integrin β1 on rat synovium-derived mesenchymal stem cells (rat) (UniProt P49134); assay: flow cytometry staining of rat synovium-derived MSC, TrypLE detachment 30 minutes
[17] = target: integrin β1 on rat synovium-derived mesenchymal stem cells (rat) (UniProt P49134); assay: flow cytometry staining of rat synovium-derived MSC cultured 8 days, TrypLE detachment 120 minutes
[18] = target: integrin β1 on rat synovium-derived mesenchymal stem cells (rat) (UniProt P49134); assay: flow cytometry staining of rat synovium-derived MSC cultured 21 days, TrypLE detachment 120 minutes
[19] = target: integrin β1 on rat synovium-derived mesenchymal stem cells (rat) (UniProt P49134); assay: flow cytometry staining of rat synovium-derived MSC, TrypLE detachment 120 minutes
[20] = target: integrin β1 on rat synovium-derived mesenchymal stem cells (rat) (UniProt P49134); assay: flow cytometry staining of rat synovium-derived MSC, TrypLE detachment 5 minutes

UniProt P49134, sequence (P49134 21-798): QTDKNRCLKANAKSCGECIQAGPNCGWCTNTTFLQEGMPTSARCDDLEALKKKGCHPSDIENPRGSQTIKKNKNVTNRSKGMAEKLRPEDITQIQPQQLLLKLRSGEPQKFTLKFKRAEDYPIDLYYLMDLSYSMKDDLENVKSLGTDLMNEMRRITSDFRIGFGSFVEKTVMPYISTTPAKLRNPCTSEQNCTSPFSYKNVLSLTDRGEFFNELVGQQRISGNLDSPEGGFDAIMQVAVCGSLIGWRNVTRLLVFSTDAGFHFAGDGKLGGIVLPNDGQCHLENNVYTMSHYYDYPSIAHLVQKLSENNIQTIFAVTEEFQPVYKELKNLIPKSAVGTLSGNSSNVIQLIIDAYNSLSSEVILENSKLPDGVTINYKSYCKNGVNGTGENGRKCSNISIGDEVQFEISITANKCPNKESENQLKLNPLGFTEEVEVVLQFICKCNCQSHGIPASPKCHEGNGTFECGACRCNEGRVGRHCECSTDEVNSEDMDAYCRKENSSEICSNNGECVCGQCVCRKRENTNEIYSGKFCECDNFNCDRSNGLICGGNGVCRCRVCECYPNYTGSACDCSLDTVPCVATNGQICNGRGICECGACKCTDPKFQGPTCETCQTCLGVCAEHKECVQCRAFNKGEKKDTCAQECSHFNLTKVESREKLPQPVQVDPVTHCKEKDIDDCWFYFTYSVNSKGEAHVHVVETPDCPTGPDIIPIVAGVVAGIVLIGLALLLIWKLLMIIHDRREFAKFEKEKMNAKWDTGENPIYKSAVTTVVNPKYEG
UniProt P05556, sequence (P05556 21-798): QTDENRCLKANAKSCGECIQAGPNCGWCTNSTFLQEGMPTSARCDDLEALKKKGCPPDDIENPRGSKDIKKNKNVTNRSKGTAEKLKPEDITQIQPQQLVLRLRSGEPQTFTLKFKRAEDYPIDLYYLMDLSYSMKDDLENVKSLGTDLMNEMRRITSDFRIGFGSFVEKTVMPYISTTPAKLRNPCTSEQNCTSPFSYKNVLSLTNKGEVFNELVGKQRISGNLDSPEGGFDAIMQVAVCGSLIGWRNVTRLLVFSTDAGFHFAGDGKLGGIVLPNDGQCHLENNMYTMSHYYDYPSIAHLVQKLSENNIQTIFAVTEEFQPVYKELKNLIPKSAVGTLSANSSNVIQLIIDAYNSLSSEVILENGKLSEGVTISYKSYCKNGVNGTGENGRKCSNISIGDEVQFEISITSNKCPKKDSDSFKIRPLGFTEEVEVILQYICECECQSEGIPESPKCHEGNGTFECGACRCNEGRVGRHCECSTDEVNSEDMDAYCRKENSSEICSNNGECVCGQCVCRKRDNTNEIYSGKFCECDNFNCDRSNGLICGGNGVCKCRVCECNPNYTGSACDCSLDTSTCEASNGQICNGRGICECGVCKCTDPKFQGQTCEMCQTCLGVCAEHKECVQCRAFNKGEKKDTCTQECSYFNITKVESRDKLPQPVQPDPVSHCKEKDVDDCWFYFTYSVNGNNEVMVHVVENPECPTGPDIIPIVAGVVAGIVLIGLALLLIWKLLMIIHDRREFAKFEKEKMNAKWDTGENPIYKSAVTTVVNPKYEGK
UniProt P09619, sequence (P09619 33-1106): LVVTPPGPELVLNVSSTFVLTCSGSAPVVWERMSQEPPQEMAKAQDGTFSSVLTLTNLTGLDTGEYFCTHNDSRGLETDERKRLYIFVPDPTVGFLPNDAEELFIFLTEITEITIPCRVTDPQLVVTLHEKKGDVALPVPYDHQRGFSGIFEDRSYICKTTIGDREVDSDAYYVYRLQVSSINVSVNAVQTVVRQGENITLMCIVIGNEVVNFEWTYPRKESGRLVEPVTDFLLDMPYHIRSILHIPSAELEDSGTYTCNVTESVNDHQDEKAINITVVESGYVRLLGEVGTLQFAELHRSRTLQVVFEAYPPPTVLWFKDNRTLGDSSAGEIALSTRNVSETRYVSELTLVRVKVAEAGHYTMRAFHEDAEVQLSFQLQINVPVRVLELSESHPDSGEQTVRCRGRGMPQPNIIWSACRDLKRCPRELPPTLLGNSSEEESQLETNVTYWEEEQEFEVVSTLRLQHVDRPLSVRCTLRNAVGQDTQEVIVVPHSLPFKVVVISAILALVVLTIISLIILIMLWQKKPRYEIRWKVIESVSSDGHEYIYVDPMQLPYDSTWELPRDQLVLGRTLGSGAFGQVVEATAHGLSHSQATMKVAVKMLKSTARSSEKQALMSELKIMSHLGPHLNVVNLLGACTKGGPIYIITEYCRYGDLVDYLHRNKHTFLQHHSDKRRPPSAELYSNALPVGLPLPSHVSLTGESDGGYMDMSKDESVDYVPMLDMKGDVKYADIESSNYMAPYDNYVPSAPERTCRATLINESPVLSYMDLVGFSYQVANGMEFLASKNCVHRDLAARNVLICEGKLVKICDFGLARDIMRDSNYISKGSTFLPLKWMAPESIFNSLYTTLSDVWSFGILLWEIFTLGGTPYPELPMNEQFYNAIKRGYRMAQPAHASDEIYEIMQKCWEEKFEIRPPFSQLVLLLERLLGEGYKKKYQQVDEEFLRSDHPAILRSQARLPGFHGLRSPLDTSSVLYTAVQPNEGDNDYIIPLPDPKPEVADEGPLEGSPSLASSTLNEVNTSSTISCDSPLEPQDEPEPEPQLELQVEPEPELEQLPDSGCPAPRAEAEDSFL
UniProt Q05030, sequence (Q05030 32-1097): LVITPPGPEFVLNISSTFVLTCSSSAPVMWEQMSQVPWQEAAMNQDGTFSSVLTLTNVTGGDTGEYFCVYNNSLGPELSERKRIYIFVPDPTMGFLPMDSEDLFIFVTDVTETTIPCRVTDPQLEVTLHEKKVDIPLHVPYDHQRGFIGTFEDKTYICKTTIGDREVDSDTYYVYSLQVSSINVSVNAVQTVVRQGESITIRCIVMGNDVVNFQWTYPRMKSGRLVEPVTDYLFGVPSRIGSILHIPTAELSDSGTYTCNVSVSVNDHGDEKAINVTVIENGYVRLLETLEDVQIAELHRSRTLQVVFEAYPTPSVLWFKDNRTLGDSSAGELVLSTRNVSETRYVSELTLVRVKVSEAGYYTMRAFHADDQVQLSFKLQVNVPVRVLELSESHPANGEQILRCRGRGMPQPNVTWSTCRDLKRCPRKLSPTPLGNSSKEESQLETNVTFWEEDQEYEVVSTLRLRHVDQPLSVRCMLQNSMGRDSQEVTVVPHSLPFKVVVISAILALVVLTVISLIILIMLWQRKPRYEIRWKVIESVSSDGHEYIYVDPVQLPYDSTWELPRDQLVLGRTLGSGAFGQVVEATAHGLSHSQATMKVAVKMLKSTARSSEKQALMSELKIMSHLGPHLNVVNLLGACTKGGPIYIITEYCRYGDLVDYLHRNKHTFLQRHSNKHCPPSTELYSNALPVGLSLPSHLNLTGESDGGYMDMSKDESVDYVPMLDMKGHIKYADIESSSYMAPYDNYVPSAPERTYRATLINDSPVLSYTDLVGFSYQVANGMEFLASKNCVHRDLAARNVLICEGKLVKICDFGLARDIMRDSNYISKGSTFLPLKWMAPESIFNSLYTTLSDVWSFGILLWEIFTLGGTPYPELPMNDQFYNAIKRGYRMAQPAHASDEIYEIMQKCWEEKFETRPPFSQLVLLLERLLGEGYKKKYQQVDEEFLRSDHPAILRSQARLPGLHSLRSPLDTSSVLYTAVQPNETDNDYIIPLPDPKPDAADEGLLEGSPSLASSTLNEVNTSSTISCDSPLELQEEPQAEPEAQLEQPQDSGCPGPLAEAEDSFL

Substance: APC Mouse Anti-Human CD29, Cat: 559883 (antibody)
- surface antigen positive rate [1]: 99.6%
- surface antigen positive rate [2]: 99.5%
- surface antigen positive rate [3]: 99.6%
- surface antigen positive rate [4]: 99.4%

Substance: Anti-PDGF Receptor β Human Goat-Poly (R & D Systems Cat. No. AF385) (antibody)
- surface antigen positive rate [5]: 95.2%
- surface antigen positive rate [6]: 85.9%
- surface antigen positive rate [7]: 90.7%
- Expression rate (percent positive cells) [8]: 32.8%
- ATP concentration (cell proliferation with rat PDGF-BB 4 ng/mL, Cell Titer Glo, 6th day of culture), 10 µg/mL PDGFRb-rSMSC [9]: 0.62 µmol/L
- ATP concentration (cell proliferation with rat PDGF-BB 4 ng/mL, Cell Titer Glo, 6th day of culture), 20 µg/mL PDGFRb-rSMSC [9]: 0.65 µmol/L
- ATP concentration (cell proliferation with rat PDGF-BB 4 ng/mL, Cell Titer Glo, 6th day of culture), 40 µg/mL PDGFRb-rSMSC [9]: 0.24 µmol/L
- ATP concentration (cell proliferation, Cell Titer Glo, 6th day of culture), 40 µg/mL PDGFRb-rSMSC [9]: 3.78 µmol/L
- ATP concentration (cell proliferation, Cell Titer Glo, 6th day of culture), 120 µg/mL PDGFRb-rSMSC [9]: 4.12 µmol/L
- Expression rate (percent positive cells) [10]: 91.6%
- Expression rate (percent positive cells) [11]: 63.3%
- Expression rate (percent positive cells) [12]: 76.9%
- surface antigen positive rate [13]: 92.2%

Substance: PE anti-mouse/rat integrin β1 Antibody (Biolegend Cat. No. 102207)
- Expression rate (percent positive cells) [14]: 56.1%
- Expression rate (percent positive cells) [15]: 96.1%
- Expression rate (percent positive cells) [16]: 99.7%
- Expression rate (percent positive cells) [17]: 97.8%
- Expression rate (percent positive cells) [18]: 62.1%
- Expression rate (percent positive cells) [19]: 97.8%
- Expression rate (percent positive cells) [20]: 98.7%
